Source: US20140271457A1 (AbbVie / Abbott, published 2014)
Residue numbers refer to the chain shown, from its start.

B1: DVD3107 (bispecific antibody)
heavy: not shown
light: DIQMTQSPSSLSASVGDRVTITCRASQDISQYLNWYQQKPGKAPKLLIYYTSRLQSGVPSRFSGSGSGTDFTLTISSLQPEDFATYFCQQGNTWPPTFGQGTKLEIKRTVAAPDVVMTQSPLSLPVTLGQPASISCRSSQSLVHSHGNTYLHWYQQRPGQSPRLLIYTVSNRFSGVPDRFSGSGSGTDFTLKISRVEAEDVGVYYCSQSTHVPYTFGGGTKVEIKRTVAAPSVFIFPPSDEQLKSGTASVVCLLNNFYPREAKVQWKVDNALQSGNSQESVTEQDSKDSTYSLSSTLTLSKADYEKHKVYACEVTHQGLSSPVTKSFNRGEC
B2: DVD3106 (bispecific antibody)
heavy: not shown
light: DIQMTQSPSSLSASVGDRVTITCRASQDISQYLNWYQQKPGKAPKLLIYYTSRLQSGVPSRFSGSGSGTDFTLTISSLQPEDFATYFCQQGNTWPPTFGQGTKLEIKRTVAAPSVFIFPPDVVMTQSPLSLPVTLGQPASISCRSSQSLVHSHGNTYLHWYQQRPGQSPRLLIYTVSNRFSGVPDRFSGSGSGTDFTLKISRVEAEDVGVYYCSQSTHVPYTFGGGTKVEIKRTVAAPSVFIFPPSDEQLKSGTASVVCLLNNFYPREAKVQWKVDNALQSGNSQESVTEQDSKDSTYSLSSTLTLSKADYEKHKVYACEVTHQGLSSPVTKSFNRGEC
B3: DVD3116 (bispecific antibody)
heavy: not shown
light: B2 light with S30E, Q31N, W94Q
B4: DVD3113 (bispecific antibody)
heavy: not shown
light: DIQMTQSPSSLSASVGDRVTITCRASQDIENYLNWYQQKPGKAPKLLIYYTSRLQSGVPSRFSGSGSGTDFTLTISSLQPEDFATYFCQQGNTQPPTFGQGTKLEIKRGGSGGGGSGDVVMTQSPLSLPVTLGQPASISCRSSQSLVHSHGNTYLHWYQQRPGQSPRLLIYTVSNRFSGVPDRFSGSGSGTDFTLKISRVEAEDVGVYYCSQSTHVPYTFGGGTKVEIKRTVAAPSVFIFPPSDEQLKSGTASVVCLLNNFYPREAKVQWKVDNALQSGNSQESVTEQDSKDSTYSLSSTLTLSKADYEKHKVYACEVTHQGLSSPVTKSFNRGEC
B5: DVD3104 (bispecific antibody, human IgG1, kappa)
heavy: not shown
light: DIQMTQSPSSLSASVGDRVTITCRASQDISQYLNWYQQKPGKAPKLLIYYTSRLQSGVPSRFSGSGSGTDFTLTISSLQPEDFATYFCQQGNTWPPTFGQGTKLEIKRTVAAPDIQMTQSPSSLSASVGDRVTITCRASQLVSSAVAWYQQKPGKAPKLLIYWASARHTGVPSRFSGSGSGTDFTLTISSLQPEDFATYYCQQHYKTPFTFGQGTKLEIKRTVAAPSVFIFPPSDEQLKSGTASVVCLLNNFYPREAKVQWKVDNALQSGNSQESVTEQDSKDSTYSLSSTLTLSKADYEKHKVYACEVTHQGLSSPVTKSFNRGEC
B6: DVD3103 (bispecific antibody, human IgG1, kappa)
heavy: not shown
light: DIQMTQSPSSLSASVGDRVTITCRASQDISQYLNWYQQKPGKAPKLLIYYTSRLQSGVPSRFSGSGSGTDFTLTISSLQPEDFATYFCQQGNTWPPTFGQGTKLEIKRGGSGGGGSGDIQMTQSPSSLSASVGDRVTITCRASQLVSSAVAWYQQKPGKAPKLLIYWASARHTGVPSRFSGSGSGTDFTLTISSLQPEDFATYYCQQHYKTPFTFGQGTKLEIKRTVAAPSVFIFPPSDEQLKSGTASVVCLLNNFYPREAKVQWKVDNALQSGNSQESVTEQDSKDSTYSLSSTLTLSKADYEKHKVYACEVTHQGLSSPVTKSFNRGEC
B7: DVD3089 (bispecific antibody, human IgG1, kappa)
heavy: not shown
light: DVVMTQSPLSLPVTLGQPASISCRSSQSLVHSHGNTYLHWYQQRPGQSPRLLIYTVSNRFSGVPDRFSGSGSGTDFTLKISRVEAEDVGVYYCSQSTHVPYTFGGGTKVEIKRTVAAPDIQMTQSPSSLSASVGDRVTITCRASQLVSSAVAWYQQKPGKAPKLLIYWASARHTGVPSRFSGSGSGTDFTLTISSLQPEDFATYYCQQHYKTPFTFGQGTKLEIKRTVAAPSVFIFPPSDEQLKSGTASVVCLLNNFYPREAKVQWKVDNALQSGNSQESVTEQDSKDSTYSLSSTLTLSKADYEKHKVYACEVTHQGLSSPVTKSFNRGEC
B8: DVD3092 (bispecific antibody, human IgG1, kappa)
heavy: not shown
light: B7 light
B9: DVD3099 (bispecific antibody, human IgG1, kappa)
heavy: not shown
light: B7 light with R142K, A171T, R172L, K211R
B10: DVD3102 (bispecific antibody, human IgG1, kappa)
heavy: not shown
light: B7 light with R142K, A171T, R172L, K211R
B11: DVD3091 (bispecific antibody, human IgG1, kappa)
heavy: not shown
light: DVVMTQSPLSLPVTLGQPASISCRSSQSLVHSHGNTYLHWYQQRPGQSPRLLIYTVSNRFSGVPDRFSGSGSGTDFTLKISRVEAEDVGVYYCSQSTHVPYTFGGGTKVEIKRTVAAPSVFIFPPDIQMTQSPSSLSASVGDRVTITCRASQLVSSAVAWYQQKPGKAPKLLIYWASARHTGVPSRFSGSGSGTDFTLTISSLQPEDFATYYCQQHYKTPFTFGQGTKLEIKRTVAAPSVFIFPPSDEQLKSGTASVVCLLNNFYPREAKVQWKVDNALQSGNSQESVTEQDSKDSTYSLSSTLTLSKADYEKHKVYACEVTHQGLSSPVTKSFNRGEC
B12: DVD3101 (bispecific antibody, human IgG1, kappa)
heavy: not shown
light: B11 light with R149K, A178T, R179L, K218R
B13: DVD3109 (bispecific antibody, human IgG1, kappa)
heavy: not shown
light: DVVMTQSPLSLPVTLGQPASISCRSSQSLVHSHGNTYLHWYQQRPGQSPRLLIYTVSNRFSGVPDRFSGSGSGTDFTLKISRVEAEDVGVYYCSQSTHVPYTFGGGTKVEIKRTVAAPDIQMTQSPSSLSASVGDRVTITCRASQDISQYLNWYQQKPGKAPKLLIYYTSRLQSGVPSRFSGSGSGTDFTLTISSLQPEDFATYFCQQGNTWPPTFGQGTKLEIKRTVAAPSVFIFPPSDEQLKSGTASVVCLLNNFYPREAKVQWKVDNALQSGNSQESVTEQDSKDSTYSLSSTLTLSKADYEKHKVYACEVTHQGLSSPVTKSFNRGEC
B14: DVD3112 (bispecific antibody, human IgG1, kappa)
heavy: not shown
light: B13 light
B15: DVD3111 (bispecific antibody, human IgG1, kappa)
heavy: not shown
light: DVVMTQSPLSLPVTLGQPASISCRSSQSLVHSHGNTYLHWYQQRPGQSPRLLIYTVSNRFSGVPDRFSGSGSGTDFTLKISRVEAEDVGVYYCSQSTHVPYTFGGGTKVEIKRTVAAPSVFIFPPDIQMTQSPSSLSASVGDRVTITCRASQDISQYLNWYQQKPGKAPKLLIYYTSRLQSGVPSRFSGSGSGTDFTLTISSLQPEDFATYFCQQGNTWPPTFGQGTKLEIKRTVAAPSVFIFPPSDEQLKSGTASVVCLLNNFYPREAKVQWKVDNALQSGNSQESVTEQDSKDSTYSLSSTLTLSKADYEKHKVYACEVTHQGLSSPVTKSFNRGEC
B16: DVD3088 (bispecific antibody, human IgG1, kappa)
heavy: not shown
light: DVVMTQSPLSLPVTLGQPASISCRSSQSLVHSHGNTYLHWYQQRPGQSPRLLIYTVSNRFSGVPDRFSGSGSGTDFTLKISRVEAEDVGVYYCSQSTHVPYTFGGGTKVEIKRGGSGGGGSGDIQMTQSPSSLSASVGDRVTITCRASQLVSSAVAWYQQKPGKAPKLLIYWASARHTGVPSRFSGSGSGTDFTLTISSLQPEDFATYYCQQHYKTPFTFGQGTKLEIKRTVAAPSVFIFPPSDEQLKSGTASVVCLLNNFYPREAKVQWKVDNALQSGNSQESVTEQDSKDSTYSLSSTLTLSKADYEKHKVYACEVTHQGLSSPVTKSFNRGEC
B17: DVD3098 (bispecific antibody, human IgG1, kappa)
heavy: not shown
light: B16 light with R146K, A175T, R176L, K215R

Biological target: Recombinant Human IL-13 (human, UniProt P35225 35-146, limits assumed)
Sequence (P35225 35-146 limits assumed): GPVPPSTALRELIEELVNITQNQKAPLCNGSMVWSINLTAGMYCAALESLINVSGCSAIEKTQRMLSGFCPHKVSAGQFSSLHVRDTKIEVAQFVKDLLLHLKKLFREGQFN
Experiment: cell-based or functional assay

| Binder | IL-13 Neutralization Assay IC50 [nM] |
| --- | --- |
| B1 | 0.029 |
| B2 | 0.074 |
| B3 | 0.081 |
| B4 | 0.065 |
| B5 | 1.05 |
| B6 | 0.042 |
| B7 | 0.074 |
| B8 | 0.06 |
| B9 | 0.014 |
| B10 | 0.025 |
| B11 | 0.056 |
| B12 | 0.037 |
| B13 | 0.044 |
| B14 | 0.017 |
| B15 | 0.018 |
| B16 | 0.103 |
| B17 | 0.059 |
